{"source": "patent US8487082B2", "about": "“Synthetic scFv analogue to the 6313/G2 (anti angiotensin II type 1 receptor) monoclonal antibody variable regions” (Queen Mary & Westfield College, priority 2008, dated 2013)", "molecules": {"B1": {"name": "R6313/G2: murine scFv analogue of the 6313/G2 anti-AT1 receptor monoclonal antibody variable domains, SEQ ID NO:15 (protein)", "scFv": "YAAQPAMAQVKLQQSGPELEKPGASVKISCKASGYSFTGYNMNWVKQSNGKSLEWIGNIDPYYGGTTYNQKFKGKATLTVDKSSSTAYMQLKSLTSEDSAVYYCAREVDYWGQGTTVTVSSGGGGSGGGGSGGGGSDIELTQSPASLAVSLGQRATISYRASKSVSTSGYSYMHWNQQKPGQPPRLLIYLVSNLESGVPARFSGSGSGTDFTLNIHPVEEEDAATYYCQHIRELTRSEGTKLEIKRAAAGAPVPY", "modifications": "12D"}}, "key": {"MCF7 cells": {"test_system": "MCF7 cells", "experimental": "Activation of caspases during apoptosis was determined using the Apo-ONE homogenous caspase-3/7 assay (Promega Corp, Southampton UK), according to the manufacturer's instructions. Briefly, cells were grown to 90% confluence and washed three times with sterile PBS. Cells were harvested using Trypsin/EDTA and counted. Cells (10^4 per well) were seeded into a 96 well plate and incubated with R6313/G2 at concentrations from 0.1 to 3 μM in the presence or absence of 100 nmol/L angiotensin II, total volume 150 μl, for 24 and 48 hours. After incubation, caspase-3/7 Z-DEVD-R110 substrate (100 μl) was added to each well. Blank wells contained reagent alone, and controls omitted the antibody and/or angiotensin II. Fluorescence was measured every 2 hours over an 8 hour period using a Fluostar Optima spectrofluorimeter (BMG Laboratories, Offenburg Germany), with an excitation wavelength of 485 nm and an emission wavelength of 535 nm."}, "breast cancer cells": {"test_system": "breast cancer cells", "experiment": "Breast cancer cell proliferation (summary statement)", "assay_type": "cell-based", "experimental": "Confluent cell monolayers were removed from tissue culture flasks using trypsin/EDTA. Cells (15×10^3 per well) were seeded into 96 well tissue culture plates containing the appropriate medium for each cell line. […] Cell viability was assessed by the ability of metabolically active cells to reduce 2,3-bis[2-Methoxy-4-nitro-5-sulphophenyl]-2H-tetrazolium-5-carboxyanilide inner salt (XTT) to the coloured formazan product. Absorbance was measured using a Multiskan Ascent microplate reader (Thermo Labsystem, Helsinki, Finland) at a wavelength of 450 nm and a reference wavelength of 630 nm. Each measurement was performed in triplicate. IC50s were calculated using a non-linear regression formula using GraphPad Prism v4.0 software (GraphPad Software Inc, San Diego Calif., USA)."}, "[1]": {"test_system": "cancer cells in hollow fibers", "experiment": "In vivo hollow fiber assay (summary statements)", "parameters": "species or system nu/nu mice", "experimental": "Hollow Fiber procedures followed the method of Hollingshead. (Hollingshead et al Life Sci 57 131-41 (1995)).\nCell-loaded hollow fiber segments were incubated at 37° C. in culture medium overnight before implantation into pure strain 5-6 week old female balb/c nu/nu mice. Fibers were implanted into the animals under anaesthesia (2% Isofluorane). Three 2 cm fibers, each containing one of the cell lines MCF-7, T47D, or MDA-MB-231, were implanted at both subcutaneous (s.c.) and intraperitoneal (i.p.) sites into each animal. For i.p. implants, a small incision was made through the skin and musculature of the ventral abdominal wall. Fibers were placed into the peritoneal cavity and both incisions were closed with metallic suture clips (Harvard Instruments, Edenbridge UK). For s.c. implants, a small incision was made dorsally. The fibers were implanted to the left of the dorsal midline in a cranial direction. The small incision was closed with metallic suture clips. […]\nCell viability was measured using a modified MTT assay. […] An aliquot (190 μl) from each well was transferred to a 96 well plate and absorbance read at 540 nm using a Multiskan Ascent photometric microplate reader (Thermo labsystem). Treated values were calculated as a percentage of the controls."}}, "note": "Read-outs that look alike come from different tables or passages of the source.", "data": [{"molecule": "B1", "values": [{"measurement": "caspase-3/7 activity", "setting": "MCF7 cells; MCF7, R6313/G2 alone", "value": "reduced caspase-3/7 activity"}, {"measurement": "caspase-3/7 activity", "setting": "MCF7 cells; MCF7, in the presence of angiotensin II", "value": "dose dependently increased caspase-3/7 activity"}, {"measurement": "breast cancer cell proliferation", "setting": "breast cancer cells; in the absence of angiotensin II", "value": "no effect"}, {"measurement": "breast cancer cell proliferation", "setting": "breast cancer cells; in the presence of up to 100 nmol angiotensin II per L", "value": "significantly inhibits breast cancer cell proliferation"}, {"measurement": "in vitro concentration giving an anti-cancer cell effect equivalent to 25 nmol/Kg in vivo", "setting": "[1]; comparison of in vivo dose 25 nmol/Kg with in vitro", "value": 3.3, "unit": "µmol/L"}, {"measurement": "cancer cell growth in hollow fibers", "setting": "[1]; intact nu/nu mice bearing cancer cells in hollow fibers", "value": "significantly inhibited cancer cell growth"}]}]}
